Source: paper PMC8810855

Biological target: Arp2/3 complex (bovine brain) (bovine) (UniProt P61157)
Assay: ITC; full-length Arpin in the syringe, ATP-bound Arp2/3 complex in the cell; 25 °C; Arp buffer (20 mM HEPES pH 7.5, 100 mM KCl, 1 mM MgCl2, 1 mM EGTA, 1 mM DTT) with 0.2 mM ATP; one-site isotherm

Kd: 1240 nM
stoichiometry N: 1.06
Substance: full-length human Arpin (from UniProt Q7Z6K5 1-226) (natural protein)
